The RNAGym collection of RNA variant scans (doi:10.1093/molbev/msab373)

B1: Azoarcus group I ribozyme (parent)
chain: GUGCCUUGCGCCGGGAAACCACGCAAGGGAUGGUGUCAAAUUCGGCGAAACCUAAGCGCCCGCCCGGGCGUAUGGCAACGCCGAGCCAAGCUUCGGCGCCUGCGCCGAUGAAGGUGUAGAGACUAGACGGCACCCACCUAAGGCAAACGCUAUGGUGAAGGCAUAGUCCAGGGAGUGGCGAAAGUCACACAAACCGG

Variants of: B1
Test: reverse-splicing fitness (ratio to wild type); higher = more active; in vitro selection; Mg2+ level not given
Summary of the method: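 An in vitro group I ribozyme library with randomized positions was T7-transcribed and gel-purified. In triplicate, 10 pmol RNA in EPPS pH 7.5 was reacted with 50 pmoles of a 30-nt RNA substrate for 1 h at 37 °C across several added MgCl2 levels (1–48 mM), then stopped with EDTA. Products were reverse transcribed from a substrate-complementary primer, PCR-amplified and sequenced (HiSeq 4000). Fitness is a variant's read proportion after selection over that before, normalised to wild type.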

Variant	reverse-splicing fitness
GUGCCUUGCGCCGGGAAACCACGCAAGGGAUGGUGUCAAAUUCGGCGAAACCUAAGCGCCCGCCCGGGCGUAUGGCAACGCUGAGCCAAGCUUCGGCGCCUGCGCCGAUGUAGGUGUAGUGACUAGACGGCACCCACCUAAGGCGAACGGUAUGGUGAAGGCAUAGUCUAGGGAGCGGCGAAAGUCACACAAACCGG	0.0058
GUGCCUUGCGCCGGGAAACCACGCAAGGGAUGGUGUCAAAUUCGGCGAAACCUAAGCGCCCGCCCGGGCGUAUGGCAACGCUGAGCCAAGCUUCGGCGCCUGCGCCGAUGUAGGUGUAGUGACUAGACGGCACCCACCUAAGGCGAACGGUAUGGUGAAGGCAUAGUCUAGGGAGGGGCGAAAGUCACACAAACCGG	0.00345
GUGCCUUGCGCCGGGAAACCACGCAAGGGAUGGUGUCAAAUUCGGCGAAACCUAAGCGCCCGCCCGGGCGUAUGGCAACGCUGAGCCAAGCUUCGGCGCCUGCGCCGAUGUAGGUGUAGUGACUAGACGGCACCCACCUAAGGCGAACGGUAUGGUGAAGGCAUAGUCUAGGGAGAGGCGAAAGUCACACAAACCGG	0.00611
GUGCCUUGCGCCGGGAAACCACGCAAGGGAUGGUGUCAAAUUCGGCGAAACCUAAGCGCCCGCCCGGGCGUAUGGCAACGCUGAGCCAAGCUUCGGCGCCUGCGCCGAUGUAGGUGUAGUGACUAGACGGCACCCACCUAAGGCGAACGUUAUGGUGAAGGCAUAGUCAAGGGAGGGGCGAAAGUCACACAAACCGG	0.00269
GUGCCUUGCGCCGGGAAACCACGCAAGGGAUGGUGUCAAAUUCGGCGAAACCUAAGCGCCCGCCCGGGCGUAUGGCAACGCUGAGCCAAGCUUCGGCGCCUGCGCCGAUGUAGGUGUAGUGACUAGACGGCACCCACCUAAGGCGAACGUUAUGGUGAAGGCAUAGUCAAGGGAGAGGCGAAAGUCACACAAACCGG	0.00543
GUGCCUUGCGCCGGGAAACCACGCAAGGGAUGGUGUCAAAUUCGGCGAAACCUAAGCGCCCGCCCGGGCGUAUGGCAACGCUGAGCCAAGCUUCGGCGCCUGCGCCGAUGUAGGUGUAGUGACUAGACGGCACCCACCUAAGGCGAACGUUAUGGUGAAGGCAUAGUCAAGGGAGCGGCGAAAGUCACACAAACCGG	0.0032
GUGCCUUGCGCCGGGAAACCACGCAAGGGAUGGUGUCAAAUUCGGCGAAACCUAAGCGCCCGCCCGGGCGUAUGGCAACGCUGAGCCAAGCUUCGGCGCCUGCGCCGAUGUAGGUGUAGUGACUAGACGGCACCCACCUAAGGCGAACGUUAUGGUGAAGGCAUAGUCUAGGGAGUGGCGAAAGUCACACAAACCGG	0.00435
GUGCCUUGCGCCGGGAAACCACGCAAGGGAUGGUGUCAAAUUCGGCGAAACCUAAGCGCCCGCCCGGGCGUAUGGCAACGCUGAGCCAAGCUUCGGCGCCUGCGCCGAUGUAGGUGUAGUGACUAGACGGCACCCACCUAAGGCGAACGUUAUGGUGAAGGCAUAGUCGAGGGAGUGGCGAAAGUCACACAAACCGG	0.0051
GUGCCUUGCGCCGGGAAACCACGCAAGGGAUGGUGUCAAAUUCGGCGAAACCUAAGCGCCCGCCCGGGCGUAUGGCAACGCUGAGCCAAGCUUCGGCGCCUGCGCCGAUGUAGGUGUAGUGACUAGACGGCACCCACCUAAGGCGAACGUUAUGGUGAAGGCAUAGUCAAGGGAGUGGCGAAAGUCACACAAACCGG	0.00562
GUGCCUUGCGCCGGGAAACCACGCAAGGGAUGGUGUCAAAUUCGGCGAAACCUAAGCGCCCGCCCGGGCGUAUGGCAACGCUGAGCCAAGCUUCGGCGCCUGCGCCGAUGUAGGUGUAGUGACUAGACGGCACCCACCUAAGGCGAACGGUAUGGUGAAGGCAUAGUCCAGGGAGAGGCGAAAGUCACACAAACCGG	0.00562
GUGCCUUGCGCCGGGAAACCACGCAAGGGAUGGUGUCAAAUUCGGCGAAACCUAAGCGCCCGCCCGGGCGUAUGGCAACGCUGAGCCAAGCUUCGGCGCCUGCGCCGAUGUAGGUGUAGUGACUAGACGGCACCCACCUAAGGCGAACGGUAUGGUGAAGGCAUAGUCCAGGGAGGGGCGAAAGUCACACAAACCGG	0.00324
GUGCCUUGCGCCGGGAAACCACGCAAGGGAUGGUGUCAAAUUCGGCGAAACCUAAGCGCCCGCCCGGGCGUAUGGCAACGCUGAGCCAAGCUUCGGCGCCUGCGCCGAUGUAGGUGUAGUGACUAGACGGCACCCACCUAAGGCGAACGGUAUGGUGAAGGCAUAGUCCAGGGAGCGGCGAAAGUCACACAAACCGG	0.00721
GUGCCUUGCGCCGGGAAACCACGCAAGGGAUGGUGUCAAAUUCGGCGAAACCUAAGCGCCCGCCCGGGCGUAUGGCAACGCUGAGCCAAGCUUCGGCGCCUGCGCCGAUGUAGGUGUAGUGACUAGACGGCACCCACCUAAGGCGAACGUUAUGGUGAAGGCAUAGUCCAGGGAGUGGCGAAAGUCACACAAACCGG	0.022
GUGCCUUGCGCCGGGAAACCACGCAAGGGAUGGUGUCAAAUUCGGCGAAACCUAAGCGCCCGCCCGGGCGUAUGGCAACGCUGAGCCAAGCUUCGGCGCCUGCGCCGAUGUAGGUGUAGUGACUAGACGGCACCCACCUAAGGCGAACGUUAUGGUGAAGGCAUAGUCGAGGGAGGGGCGAAAGUCACACAAACCGG	0.00243
GUGCCUUGCGCCGGGAAACCACGCAAGGGAUGGUGUCAAAUUCGGCGAAACCUAAGCGCCCGCCCGGGCGUAUGGCAACGCUGAGCCAAGCUUCGGCGCCUGCGCCGAUGUAGGUGUAGUGACUAGACGGCACCCACCUAAGGCGAACGUUAUGGUGAAGGCAUAGUCGAGGGAGCGGCGAAAGUCACACAAACCGG	0.00383
GUGCCUUGCGCCGGGAAACCACGCAAGGGAUGGUGUCAAAUUCGGCGAAACCUAAGCGCCCGCCCGGGCGUAUGGCAACGCUGAGCCAAGCUUCGGCGCCUGCGCCGAUGUAGGUGUAGUGACUAGACGGCACCCACCUAAGGCGAACGUUAUGGUGAAGGCAUAGUCGAGGGAGAGGCGAAAGUCACACAAACCGG	0.00606
GUGCCUUGCGCCGGGAAACCACGCAAGGGAUGGUGUCAAAUUCGGCGAAACCUAAGCGCCCGCCCGGGCGUAUGGCAACGCUGAGCCAAGCUUCGGCGCCUGCGCCGAUGUAGGUGUAGUGACUAGACGGCACCCACCUAAGGCGAACGCUAUGGUGAAGGCAUAGUCAAGGGAGAGGCGAAAGUCACACAAACCGG	0.00289
GUGCCUUGCGCCGGGAAACCACGCAAGGGAUGGUGUCAAAUUCGGCGAAACCUAAGCGCCCGCCCGGGCGUAUGGCAACGCUGAGCCAAGCUUCGGCGCCUGCGCCGAUGUAGGUGUAGUGACUAGACGGCACCCACCUAAGGCGAACGCUAUGGUGAAGGCAUAGUCAAGGGAGGGGCGAAAGUCACACAAACCGG	0.00171
GUGCCUUGCGCCGGGAAACCACGCAAGGGAUGGUGUCAAAUUCGGCGAAACCUAAGCGCCCGCCCGGGCGUAUGGCAACGCUGAGCCAAGCUUCGGCGCCUGCGCCGAUGUAGGUGUAGUGACUAGACGGCACCCACCUAAGGCGAACGCUAUGGUGAAGGCAUAGUCAAGGGAGCGGCGAAAGUCACACAAACCGG	0.00291
GUGCCUUGCGCCGGGAAACCACGCAAGGGAUGGUGUCAAAUUCGGCGAAACCUAAGCGCCCGCCCGGGCGUAUGGCAACGCUGAGCCAAGCUUCGGCGCCUGCGCCGAUGUAGGUGUAGUGACUAGACGGCACCCACCUAAGGCGAACGUUAUGGUGAAGGCAUAGUCUAGGGAGCGGCGAAAGUCACACAAACCGG	0.00399
GUGCCUUGCGCCGGGAAACCACGCAAGGGAUGGUGUCAAAUUCGGCGAAACCUAAGCGCCCGCCCGGGCGUAUGGCAACGCUGAGCCAAGCUUCGGCGCCUGCGCCGAUGUAGGUGUAGUGACUAGACGGCACCCACCUAAGGCGAACGUUAUGGUGAAGGCAUAGUCUAGGGAGAGGCGAAAGUCACACAAACCGG	0.00396
GUGCCUUGCGCCGGGAAACCACGCAAGGGAUGGUGUCAAAUUCGGCGAAACCUAAGCGCCCGCCCGGGCGUAUGGCAACGCUGAGCCAAGCUUCGGCGCCUGCGCCGAUGUAGGUGUAGUGACUAGACGGCACCCACCUAAGGCGAACGUUAUGGUGAAGGCAUAGUCUAGGGAGGGGCGAAAGUCACACAAACCGG	0.00209
GUGCCUUGCGCCGGGAAACCACGCAAGGGAUGGUGUCAAAUUCGGCGAAACCUAAGCGCCCGCCCGGGCGUAUGGCAACGCUGAGCCAAGCUUCGGCGCCUGCGCCGAUGUAGGUGUAGUGACUAGACGGCACCCACCUAAGGCGAACGCUAUGGUGAAGGCAUAGUCGAGGGAGCGGCGAAAGUCACACAAACCGG	0.0035
GUGCCUUGCGCCGGGAAACCACGCAAGGGAUGGUGUCAAAUUCGGCGAAACCUAAGCGCCCGCCCGGGCGUAUGGCAACGCUGAGCCAAGCUUCGGCGCCUGCGCCGAUGUAGGUGUAGUGACUAGACGGCACCCACCUAAGGCGAACGCUAUGGUGAAGGCAUAGUCGAGGGAGAGGCGAAAGUCACACAAACCGG	0.00271
GUGCCUUGCGCCGGGAAACCACGCAAGGGAUGGUGUCAAAUUCGGCGAAACCUAAGCGCCCGCCCGGGCGUAUGGCAACGCUGAGCCAAGCUUCGGCGCCUGCGCCGAUGUAGGUGUAGUGACUAGACGGCACCCACCUAAGGCGAACGCUAUGGUGAAGGCAUAGUCAAGGGAGUGGCGAAAGUCACACAAACCGG	0.0029
GUGCCUUGCGCCGGGAAACCACGCAAGGGAUGGUGUCAAAUUCGGCGAAACCUAAGCGCCCGCCCGGGCGUAUGGCAACGCUGAGCCAAGCUUCGGCGCCUGCGCCGAUGUAGGUGUAGUGACUAGACGGCACCCACCUAAGGCGAACGCUAUGGUGAAGGCAUAGUCGAGGGAGUGGCGAAAGUCACACAAACCGG	0.00363
GUGCCUUGCGCCGGGAAACCACGCAAGGGAUGGUGUCAAAUUCGGCGAAACCUAAGCGCCCGCCCGGGCGUAUGGCAACGCUGAGCCAAGCUUCGGCGCCUGCGCCGAUGUAGGUGUAGUGACUAGACGGCACCCACCUAAGGCGAACGGUAUGGUGAAGGCAUAGUCUAGGGAGUGGCGAAAGUCACACAAACCGG	0.00706
GUGCCUUGCGCCGGGAAACCACGCAAGGGAUGGUGUCAAAUUCGGCGAAACCUAAGCGCCCGCCCGGGCGUAUGGCAACGCUGAGCCAAGCUUCGGCGCCUGCGCCGAUGUAGGUGUAGUGACUAGACGGCACCCACCUAAGGCGAACGUUAUGGUGAAGGCAUAGUCCAGGGAGCGGCGAAAGUCACACAAACCGG	0.0115
GUGCCUUGCGCCGGGAAACCACGCAAGGGAUGGUGUCAAAUUCGGCGAAACCUAAGCGCCCGCCCGGGCGUAUGGCAACGCUGAGCCAAGCUUCGGCGCCUGCGCCGAUGUAGGUGUAGUGACUAGACGGCACCCACCUAAGGCGAACGUUAUGGUGAAGGCAUAGUCCAGGGAGGGGCGAAAGUCACACAAACCGG	0.00322
GUGCCUUGCGCCGGGAAACCACGCAAGGGAUGGUGUCAAAUUCGGCGAAACCUAAGCGCCCGCCCGGGCGUAUGGCAACGCUGAGCCAAGCUUCGGCGCCUGCGCCGAUGUAGGUGUAGUGACUAGACGGCACCCACCUAAGGCGAACGUUAUGGUGAAGGCAUAGUCCAGGGAGAGGCGAAAGUCACACAAACCGG	0.00787
